Laboratory results reported in patent publication US20230257479A1 (Genmab, published 2023).
Changes are numbered by the printed parent chain. Names and notes keep the numbering of the source.

Columns and labels:
[1] = biological target: T1, full length human 5T4 (SEQ ID NO: 1) on cells (human, UniProt Q13641 32-420); experiment: flow cytometry, HeLa cells, FITC secondary [I)A]
T1 construct: Uniprot Q13641; residues 1-31 are the signal peptide; Used both for transfected HEK-293 cells and for 5T4-expressing human tumor cell lines
T1 sequence: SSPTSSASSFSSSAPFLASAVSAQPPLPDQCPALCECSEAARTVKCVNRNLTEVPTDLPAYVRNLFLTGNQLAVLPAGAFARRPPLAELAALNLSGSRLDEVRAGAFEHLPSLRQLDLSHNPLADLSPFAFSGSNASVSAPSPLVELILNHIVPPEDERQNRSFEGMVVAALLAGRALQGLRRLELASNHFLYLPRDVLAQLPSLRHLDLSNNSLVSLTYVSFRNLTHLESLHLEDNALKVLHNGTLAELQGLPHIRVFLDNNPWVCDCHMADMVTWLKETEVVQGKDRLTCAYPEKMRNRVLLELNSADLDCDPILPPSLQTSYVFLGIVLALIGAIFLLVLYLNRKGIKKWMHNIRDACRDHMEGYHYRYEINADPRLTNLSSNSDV
Procedure: (§1) After washing twice in staining buffer, cells were incubated in 50 µL secondary antibody at 4° C. for 30 min. […] Next, cells were washed twice in staining buffer, re-suspended in 120 µL staining buffer and analyzed on a BD LSRFortessa FACS (BD Biosciences, USA). Binding curves were analyzed using non-linear regression (sigmoidal dose-response with variable slope) using GraphPad Prism V7.02 software (GraphPad Software, San Diego, CA, USA).

[2] = biological target: T1, full length human 5T4 (SEQ ID NO: 1) on …; experiment: flow cytometry, MDA-MB-231 cells, FITC secondary [I)A]
Procedure: as §1

[3] = biological target: T1, full length human 5T4 (SEQ ID NO: 1) on …; experiment: flow cytometry, HEK-293 cells transfected with human 5T4, PE secondary [II)A]
[4] = biological target: T1, full length human 5T4 (SEQ ID NO: 1) on …; experiment: flow cytometry, HEK-293 cells transfected with human 5T4, FITC secondary [I)A]
Procedure: (§2) Experiments were performed in technical duplicate. After washing twice in staining buffer, cells were incubated in 50 µL secondary antibody at 4° C. for 30 min. […] Cells were washed twice in staining buffer, re-suspended in 30 µL staining buffer and analyzed on an iQue Screener (Intellicyt Corporation, USA). Binding curves were analyzed using non-linear regression (sigmoidal dose-response with variable slope) using GraphPad Prism V7.02 software (GraphPad Software, San Diego, CA, USA).

[5] = biological target: T2, full length cynomolgus monkey 5T4 on transfected HEK-293 cells (cynomolgus monkey, UniProt Q4R8Y9 35-420); experiment: flow cytometry, HEK-293 cells transfected with cynomolgus monkey 5T4, PE secondary [II)A]
T2 construct: Uniprot Q4R8Y9; residues 1-34 are the signal peptide; also called cynomolgus 5T4
T2 sequence: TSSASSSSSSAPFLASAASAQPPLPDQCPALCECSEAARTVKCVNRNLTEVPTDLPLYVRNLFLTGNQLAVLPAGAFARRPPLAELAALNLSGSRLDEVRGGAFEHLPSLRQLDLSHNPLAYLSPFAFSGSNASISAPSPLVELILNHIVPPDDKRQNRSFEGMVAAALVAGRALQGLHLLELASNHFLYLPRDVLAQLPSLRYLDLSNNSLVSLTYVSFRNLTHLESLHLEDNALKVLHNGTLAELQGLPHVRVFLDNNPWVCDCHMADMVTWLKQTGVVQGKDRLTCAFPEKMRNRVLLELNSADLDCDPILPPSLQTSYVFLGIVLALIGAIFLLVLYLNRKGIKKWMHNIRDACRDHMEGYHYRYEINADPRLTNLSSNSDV

[6] = biological target: T2, full length cynomolgus monkey 5T4 on …; experiment: flow cytometry, HEK-293 cells transfected with cynomolgus monkey 5T4, FITC secondary [I)A]
Procedure: as §2

[7] = biological target: T1, full length human 5T4 (SEQ ID NO: 1) on …; experiment: flow cytometry, HeLa cells, FITC secondary [I)C]
Procedure: as §1

[8] = biological target: T1, full length human 5T4 (SEQ ID NO: 1) on …; experiment: flow cytometry, MDA-MB-231 cells, FITC secondary [I)C]
Procedure: Binding of CD3x5T4 bispecific and 5T4 monospecific antibodies to 5T4-positive human tumor cells. Mono- and bivalent binding of 5T4 antibodies to HeLa cells (left panels) or MDA-MB-231 cells (right panels) was determined by flow cytometry. Cells were incubated with increasing concentrations of antibodies. After secondary labelling with FITC-conjugated goat-anti-human IgG F(ab′)2, the MFI was determined by flow cytometry.
as §1

[9] = biological target: T1, full length human 5T4 (SEQ ID NO: 1) on …; experiment: flow cytometry, HEK-293 cells transfected with human 5T4, FITC secondary [I)B]
Procedure: as §2

[10] = biological target: T2, full length cynomolgus monkey 5T4 on …; experiment: flow cytometry, HEK-293 cells transfected with cynomolgus monkey 5T4, PE secondary [II)B]
[11] = biological target: T2, full length cynomolgus monkey 5T4 on …; experiment: flow cytometry, HEK-293 cells transfected with cynomolgus monkey 5T4, FITC secondary [I)B]
Procedure: as §2

B1: IgG1-5T4-207-FEAR (antibody, V domains shown)
VH: QVQLQQWGAGLLKPSETLSLTCAVYGGSFSGYYWTWIRQPPGKGLEWIGEIDHSESTNYNPSLKSRVTISVDTSKNQFSLKLSSVTAADTAVYYCAGWFGELYHYYYGMDVWGQGTTVTVSS
VL: EIVLTQSPATLSLSPGERATLSCRASQSVSSYLAWYQQKPGQAPRLLIYDASNRATGIPARFSGSGSGTDFTLTISSLEPEDFAVYYCQQRSNWPLTFGGGTKVEIKR
notes: Monospecific, bivalent IgG1 FEAR
With B1 the “EC50 (read off the curve)” value [1] was about 0.008 µg/mL, the “EC50 (read off the curve)” value [2] was about 0.03 µg/mL and the “EC50 (read off the curve)” value [3] was about 0.08 µg/mL. The “EC50 (read off the curve)” value [4] was about 0.05 µg/mL, the “EC50 (read off the curve)” value [5] was about 0.08 µg/mL and the “EC50 (read off the curve)” value [6] was about 0.06 µg/mL.

B2: IgG1-5T4-226-FEAR (antibody, V domains shown)
VH: B1 VH with T35S, E55G, G97A, Y103W, H104D
VL: EIVLTQSPATLSLSPGERATLSCRASQSVSSFLAWYQQKPGQAPRLLIYDASNRATGIPARFSGSGSGTDFTLTISSLEPEDFAVYYCQQRSNWPLTFGQGTRLEIK
notes: Monospecific, bivalent human IgG1 kappa with L234F, L235E, D265A, K409R (FEAR); also called IgG1-5T4-226-FEAR-FITC
With B2 the “EC50 (read off the curve)” value [7] was about 0.01 µg/mL, the “EC50 (read off the curve)” value [8] was about 0.04 µg/mL and the “EC50 (read off the curve)” value [9] was about 0.1 µg/mL. For the same binder, the “EC50 (read off the curve)” value [10] was about 0.02 µg/mL and the “EC50 (read off the curve)” value [11] was about 0.08 µg/mL.
